What is called Kd is the free concentration of one partner at which half of the binding sites on the other are occupied at equilibrium, for simple one-to-one binding.

The experiment has as its target T1, ATG7 (analyte of the surface plasmon resonance assay) (UniProt Q9D906 1-698).
T1 construct: ATG7 used for surface plasmon resonance; Source of the protein may stand in the Supporting Information
T1 sequence (looked up): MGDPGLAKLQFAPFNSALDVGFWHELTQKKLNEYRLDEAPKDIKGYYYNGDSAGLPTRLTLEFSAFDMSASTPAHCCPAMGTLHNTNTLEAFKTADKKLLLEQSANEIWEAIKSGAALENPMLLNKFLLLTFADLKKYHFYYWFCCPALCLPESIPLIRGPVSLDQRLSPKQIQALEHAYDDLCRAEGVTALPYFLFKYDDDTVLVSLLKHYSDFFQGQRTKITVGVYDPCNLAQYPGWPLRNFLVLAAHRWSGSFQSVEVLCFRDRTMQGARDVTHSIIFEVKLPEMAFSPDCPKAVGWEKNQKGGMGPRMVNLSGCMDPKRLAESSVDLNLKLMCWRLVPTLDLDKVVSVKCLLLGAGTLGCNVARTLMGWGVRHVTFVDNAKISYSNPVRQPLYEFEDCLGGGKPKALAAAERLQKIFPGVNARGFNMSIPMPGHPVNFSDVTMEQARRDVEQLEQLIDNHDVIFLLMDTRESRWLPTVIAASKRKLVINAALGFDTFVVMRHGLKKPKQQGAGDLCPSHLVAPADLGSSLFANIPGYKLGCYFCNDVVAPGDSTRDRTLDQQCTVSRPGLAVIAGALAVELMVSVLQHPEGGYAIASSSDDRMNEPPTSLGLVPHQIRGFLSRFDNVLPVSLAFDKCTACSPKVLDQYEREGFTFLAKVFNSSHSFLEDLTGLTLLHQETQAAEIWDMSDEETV
The experiment can be described thus: SPR; ATF3 immobilized on the CM5 sensor chip, ATG7 as analyte. Conditions: both partners purified.

B1: ATF3 immobilized on the CM5 sensor chip (natural protein)
chain: MMLQHPGQVSASEVSATAIVPCLSPPGSLVFEDFANLTPFVKEELRFAIQNKHLCHRMSSALESVTVNNRPLEMSVTKSEAAPEEDERKRRRRERNKIAAAKCRNKKKEKTECLQKESEKLESVNAELKAQIEELKNEKQHLIYMLNLHRPTCIVRAQNGRTPEDERNLFIQQIKEGTLQS
With B1, the Kd was found to be 963 nM.

The values are drawn from paper PMC12499416, “ATF3 Deficiency Exacerbates Ageing‐Induced Atherosclerosis and Clinical Intervention Strategy” (Advanced Science, 2025).
